The results in this text go back to patent US20240228562A1 (Pieris, published 2024).

The target of this experiment is T1, recombinant human CTGF protein (R&D Systems, SEQ ID NO: 79) (human, UniProt P29279 27-349).
T1 construct: Bought; also called human CTGF/CNN2; huCTGF
T1 sequence: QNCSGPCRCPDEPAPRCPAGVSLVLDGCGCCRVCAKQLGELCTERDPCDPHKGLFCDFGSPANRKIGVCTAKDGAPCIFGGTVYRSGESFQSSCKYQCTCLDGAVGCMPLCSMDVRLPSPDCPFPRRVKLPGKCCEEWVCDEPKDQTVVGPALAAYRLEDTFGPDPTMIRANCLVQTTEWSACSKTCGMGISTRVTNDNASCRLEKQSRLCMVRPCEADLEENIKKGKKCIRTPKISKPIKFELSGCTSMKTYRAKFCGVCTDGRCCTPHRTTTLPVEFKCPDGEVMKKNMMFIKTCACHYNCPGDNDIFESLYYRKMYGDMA
Nature of the experiment: ELISA, coated human CTGF. As to the method: Binding of fusion proteins was tested by an ELISA assay. In detail, a 384-well plate suitable for fluorescence measurements (Greiner FLUOTRAC™ 600, black flat bottom, high-binding) was coated with 20 μl of human CTGF (R&D Systems) at a concentration of 1 μg/ml in PBS over night at 4° C. After washing with PBS with 0.05% Tween 20, wells were blocked with 100 μl blocking buffer containing 0.1% Tween 20 and 2% BSA (PBS-T/BSA) for 1 h at room temperature. 20 μl of serially diluted muteins were incubated in PBS-T/BSA for 1 h at room temperature (RT).
The residual supernatants were discarded and 20 μl HRP-labeled anti-NGAL or anti-His-Tag antibody was added at a predetermined optimal concentration in PBS-T/BSA and incubated for 1 h at RT. After washing, 20 μl fluorogenic HRP substrate (QuantaBlu, Thermo) was added to each well, and the reaction was allowed to proceed for 2 to 60 minutes. The fluorescence intensity of every well on the plate was read using a fluorescence microplate reader (Tecan). Curve fitting was performed using GraphPad Prism 7 or 8 software.
(In general: An ELISA detects its analyte on a solid surface through an enzyme-linked reagent.)

B1: fusion protein of SEQ ID NO: 67 (designed binder)
chain: QDSTSDLIPAPPLSKVPLQQNFQDNQFHGKWYVVGLAGNKILRIDKQPAKMFATIYELKEDKSYDVTSVRFEARSCSYTIKTFVPGSQPGEFTAGNIKSAPGQTSTLVRVVSTNYNQHAMVFFKHVSQNRETFVITLYGRTKELTSELKENFIRFSKSLGLPENHIVFPVPIDQCIDGGGGGSGGGGSGGGGSQDSTSDLIPAPPLSKVPLQQNFQDNQFHGKWYVVGWAGNIKLREDKDPFKMSATIYELKEDKSYDVTEVVFEQKKCHYIIKTFVPGSQPGEFTLGDIKSPPGETSSLVRVVSTNYNQHAMVFFKKVFQNREFFWITLYGRTKELTSELKENFIRFSKSLGLPENHIVFPVPIDQCIDG
As usually defined, the EC50 is the concentration that produces a half-maximal response. In the case of B1, the concentration for a half-maximal effect (EC50) stood at 1 nM.
